T1: RBM10 RRM1-ZnF-RRM2 (Homo sapiens) (UniProt P98175)
T1 sequence: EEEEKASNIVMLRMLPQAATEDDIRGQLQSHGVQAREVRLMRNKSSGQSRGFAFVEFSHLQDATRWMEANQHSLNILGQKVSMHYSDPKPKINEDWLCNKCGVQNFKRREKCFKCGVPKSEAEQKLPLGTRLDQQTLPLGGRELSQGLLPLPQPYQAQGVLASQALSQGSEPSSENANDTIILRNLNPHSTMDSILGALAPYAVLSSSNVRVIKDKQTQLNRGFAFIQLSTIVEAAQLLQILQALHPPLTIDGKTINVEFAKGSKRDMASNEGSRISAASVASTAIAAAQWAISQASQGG

T2: RBM10 RRM1-ZnF (Homo sapiens) (UniProt P98175)
T2 sequence: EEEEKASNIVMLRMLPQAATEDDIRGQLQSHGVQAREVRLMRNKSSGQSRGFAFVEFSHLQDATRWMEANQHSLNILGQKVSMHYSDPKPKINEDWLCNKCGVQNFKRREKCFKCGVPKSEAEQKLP

T3: RBM10 RRM1-ZnF (Homo sapiens, UniProt P98175 129-242)
T3 sequence: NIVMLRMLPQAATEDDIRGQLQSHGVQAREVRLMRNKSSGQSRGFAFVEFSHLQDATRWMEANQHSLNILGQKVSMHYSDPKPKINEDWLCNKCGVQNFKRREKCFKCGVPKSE

T4: RBM10 RRM2 (Homo sapiens, UniProt P98175 300-384)
T4 sequence: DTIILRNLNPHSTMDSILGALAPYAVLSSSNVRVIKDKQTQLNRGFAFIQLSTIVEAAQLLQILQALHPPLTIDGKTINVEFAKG

T5: RBM10 RRM1-ZnF-RRM2 (Homo sapiens, UniProt P98175 129-384)
T5 sequence: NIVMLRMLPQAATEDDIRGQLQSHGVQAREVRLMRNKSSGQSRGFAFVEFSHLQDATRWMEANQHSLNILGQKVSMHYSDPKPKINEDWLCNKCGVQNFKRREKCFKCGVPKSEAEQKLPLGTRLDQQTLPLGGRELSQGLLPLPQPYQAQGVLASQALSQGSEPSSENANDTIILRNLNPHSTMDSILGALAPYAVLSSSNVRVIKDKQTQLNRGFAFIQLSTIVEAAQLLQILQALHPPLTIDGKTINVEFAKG


Experiments:
[1] = molecular target: T1, RBM10 RRM1-ZnF-RRM2 (Homo sapiens); test: pulldown; conditions: 20 nM protein; 20 mM Hepes pH 7.8, 80 mM KCl, 20 mM NaCl, 10% glycerol, 2 mM DTT; 4 C
[2] = molecular target: T2, RBM10 RRM1-ZnF (Homo sapiens); test: pulldown; conditions: 20 nM protein; 20 mM Hepes pH 7.8, 80 mM KCl, 20 mM NaCl, 10% glycerol, 2 mM DTT; 4 C
RBM10 RRM1-ZnF [3] = molecular target: T3, RBM10 RRM1-ZnF; test: ITC; 10 uM ZnCl2; 10 mM sodium phosphate pH 6.9, 50 mM NaCl, 1 mM TCEP (+10 uM ZnCl2 for ZnF constructs); ITC 25 C; NMR 298 or 310 K; conditions: protein: recombinant; tags: His6 or His6-SUMO3, cleaved with HRV 3C
RBM10 RRM1-ZnF [4] = molecular target: T3, RBM10 RRM1-ZnF; test: as above; conditions: protein: recombinant; tags: His6 or His6-SUMO3, cleaved with HRV 3C; remark: listed apart in the source
RBM10 RRM2 = molecular target: T4, RBM10 RRM2; test: ITC; 10 mM sodium phosphate pH 6.9, 50 mM NaCl, 1 mM TCEP (+10 uM ZnCl2 for ZnF constructs); ITC 25 C; NMR 298 or 310 K; conditions: protein: recombinant; tags: His6 or His6-SUMO3, cleaved with HRV 3C
RBM10 RRM1-ZnF [5] = molecular target: T3, RBM10 RRM1-ZnF; test: ITC; 10 uM ZnCl2; 10 mM sodium phosphate pH 6.9, 50 mM NaCl, 1 mM TCEP (+10 uM ZnCl2 for ZnF constructs); ITC 25 C; NMR 298 or 310 K; conditions: protein: recombinant; tags: His6 or His6-SUMO3, cleaved with HRV 3C; remark: listed apart in the source
RBM10 RRM1-ZnF-RRM2 = molecular target: T5, RBM10 RRM1-ZnF-RRM2; test: NMR; 10 uM ZnCl2; RRM1-ZnF slow exchange, Kd in nM range; RRM2 second weak event, Kd in uM range; 10 mM sodium phosphate pH 6.9, 50 mM NaCl, 1 mM TCEP (+10 uM ZnCl2 for ZnF constructs); ITC 25 C; NMR 298 or 310 K; conditions: protein: recombinant; tags: His6 or His6-SUMO3, cleaved with HRV 3C

Molecule	binding signal (RNAcompete z-score) [1]	binding signal (RNAcompete z-score) [2]	further results
GGGAUGG [7-mer GGGAUGG]	5.12	5.71	
AAGGGUG [7-mer AAGGGUG]	5.29	5.25	
GAAGGGG [7-mer GAAGGGG]	4.83	5.25	
AAAGGGU [7-mer AAAGGGU]		5	
GAGUGGG [7-mer GAGUGGG]	4.9	4.99	
GGUUGGG [7-mer GGUUGGG]		5.27	
GGUGGGG [7-mer GGUGGGG]		5.21	
GGAUGGG [7-mer GGAUGGG]	4.83	5.66	
GAAAGGG [7-mer GAAAGGG]	5.54	6.04	
GAAAGGA [7-mer GAAAGGA]	5.67	5.87	
AGGGAAA [7-mer AGGGAAA]	4.87		
GGUAGGG [7-mer GGUAGGG]	4.79		
GGAAAGG [7-mer GGAAAGG]	6.43	6.53	
GAAAUGG [7-mer GAAAUGG]	4.79	5.03	
AGUAGGG [7-mer AGUAGGG]	4.88		
GGGAAGG [7-mer GGGAAGG]	5.54	5.91	
GGAAGGG [7-mer GGAAGGG]	5.56	6	
GGUAAGG [7-mer GGUAAGG]	4.92	4.97	
CUGUGGU (ssRNA)			binding signal (RBM10 RRM1-ZnF [3]): ~3 fold decrease in affinity vs CUGUGGA
CUGAGGA (ssRNA)			binding signal (RBM10 RRM1-ZnF [4]): < 2 fold decrease in affinity vs CUGUGGA
UGUGGA (ssRNA)			binding signal (RBM10 RRM1-ZnF [4]): ~2 fold decrease in affinity vs CUGUGGA
CAGUGGA (ssRNA)			binding signal (RBM10 RRM1-ZnF [4]): < 2 fold decrease in affinity vs CUGUGGA
UAAUA (ssRNA)			binding result (RBM10 RRM2): no binding
CCCAC (ssRNA)			Kd (RBM10 RRM2): ~7 µM
CUAUGGA (ssRNA)			binding signal (RBM10 RRM1-ZnF [4]): ~5 fold decrease in affinity vs CUGUGGA
CUGUGGA (ssRNA)			binding result (RBM10 RRM1-ZnF [5]): binds; binding result (RBM10 RRM1-ZnF-RRM2): binds

From paper PMC5499739, “An RRM–ZnF RNA recognition module targets RBM10 to exonic sequences to promote exon exclusion”
